Data: EP4810057A1

How the values were obtained:
Assay in all cases: BLI, mAb on Protein A or AMC2 sensor, 1:1 fit
[1] = molecular target: SCB-1019T(A) (respiratory syncytial virus subtype A (A2 strain))
[2] = molecular target: SCB-1019T(B) (respiratory syncytial virus subtype B (Australian RSV B strain))
[3] = molecular target: WT-F-Trimer (respiratory syncytial virus, subtype not given)
[4] = molecular target: commercial GSK vaccine F protein control

Substance	Kd [1]	RLU(nm) [1]	koff [1]	kon [1]	Kd [2]	RLU(nm) [2]	koff [2]	Kd [3]	RLU(nm) [3]	koff [3]	Kd [4]	RLU(nm) [4]	koff [4]	kon [2]	kon [3]	kon [4]
MPE8 (antibody)	< 0.001 nM	0.59 nm	< 1e-07 s⁻¹	4.12e+06 M⁻¹ s⁻¹	0.771 nM	0.672 nm	3.43e-05 s⁻¹	22.1 nM	0.0968 nm	0.000226 s⁻¹	2.22 nM	0.815 nm	0.000353 s⁻¹	–	–	–
hRSV90 (antibody)	< 0.001 nM	0.928 nm	< 1e-07 s⁻¹	–	1.94 nM	0.068 nm	0.00153 s⁻¹	12.7 nM	0.0884 nm	0.000271 s⁻¹	0.771 nM	1.03 nm	0.000218 s⁻¹	788000 M⁻¹ s⁻¹	21400 M⁻¹ s⁻¹	282000 M⁻¹ s⁻¹
D25 (antibody)	0.114 nM	1.19 nm	3.38e-05 s⁻¹	296000 M⁻¹ s⁻¹	0.247 nM	1.5 nm	0.000112 s⁻¹	< 0.001 nM	0.266 nm	< 1e-07 s⁻¹	0.221 nM	1.11 nm	0.000104 s⁻¹	–	12100 M⁻¹ s⁻¹	472000 M⁻¹ s⁻¹
AM14 (antibody)	0.382 nM	0.693 nm	5.67e-05 s⁻¹	–	0.2 nM	0.534 nm	4.43e-05 s⁻¹	–	0 nm	–	0.484 nM	1.34 nm	0.000364 s⁻¹	222000 M⁻¹ s⁻¹	–	–
AM22 (antibody)	0.209 nM	1.13 nm	2.1e-05 s⁻¹	–	0.495 nM	1.1 nm	3.99e-05 s⁻¹	< 0.001 nM	0.123 nm	< 1e-07 s⁻¹	0.644 nM	1.42 nm	0.000196 s⁻¹	80700 M⁻¹ s⁻¹	–	304000 M⁻¹ s⁻¹
